Measured values published in patent US20220308072A1.

Experiments:
[1] = molecular target: Recombinant, his tagged full length human frataxin protein (Abcam ab95502) (human) (UniProt Q16595); experiment: Simoa sandwich 2-step; capture Ab-2; frataxin 1000 pg/mL
[2] = molecular target: Recombinant, his tagged full length human frataxin protein (Abcam ab95502) (human) (UniProt Q16595); experiment: Simoa sandwich 2-step; capture Ab-1; frataxin 18.5 pg/mL
[3] = molecular target: Recombinant, his tagged full length human frataxin protein (Abcam ab95502) (human) (UniProt Q16595); experiment: Simoa sandwich 3-step; capture Ab-3
[4] = molecular target: Recombinant, his tagged full length human frataxin protein (Abcam ab95502) (human) (UniProt Q16595); experiment: Simoa sandwich 3-step; capture Ab-2; frataxin 100 pg/mL
[5] = molecular target: Recombinant, his tagged full length human frataxin protein (Abcam ab95502) (human) (UniProt Q16595); experiment: Simoa sandwich 2-step; capture Ab-1; 150 pM SβG; frataxin 6.17 pg/mL
[6] = molecular target: Recombinant, his tagged full length human frataxin protein (Abcam ab95502) (human) (UniProt Q16595); experiment: Simoa sandwich 3-step; capture Ab-4; frataxin 100 pg/mL
[7] = molecular target: Recombinant, his tagged full length human frataxin protein (Abcam ab95502) (human) (UniProt Q16595); experiment: Simoa sandwich 3-step; capture Ab-2; frataxin 1000 pg/mL
[8] = molecular target: Recombinant, his tagged full length human frataxin protein (Abcam ab95502) (human) (UniProt Q16595); experiment: Simoa sandwich 2-step; capture Ab-1; frataxin 1000 pg/mL
[9] = molecular target: Recombinant, his tagged full length human frataxin protein (Abcam ab95502) (human) (UniProt Q16595); experiment: Simoa sandwich 2-step (120 min-5 min); capture Ab-1; Diluent 1 + 10% NCS; frataxin 37.0 pg/mL
[10] = molecular target: Recombinant, his tagged full length human frataxin protein (Abcam ab95502) (human) (UniProt Q16595); experiment: Simoa sandwich 2-step (120 min-5 min); capture Ab-1; Diluent 1 + 5% NCS; frataxin 37.0 pg/mL
[11] = molecular target: Recombinant, his tagged full length human frataxin protein (Abcam ab95502) (human) (UniProt Q16595); experiment: Simoa sandwich 2-step (120 min-5 min); capture Ab-1; Diluent 1 + 10% NCS; frataxin 200 pg/mL
[12] = molecular target: Recombinant, his tagged full length human frataxin protein (Abcam ab95502) (human) (UniProt Q16595); experiment: Simoa sandwich 2-step; capture Ab-2; frataxin 6.17 pg/mL
[13] = molecular target: Recombinant, his tagged full length human frataxin protein (Abcam ab95502) (human) (UniProt Q16595); experiment: Simoa sandwich 3-step; capture Ab-2; frataxin 10000 pg/mL
[14] = molecular target: Recombinant, his tagged full length human frataxin protein (Abcam ab95502) (human) (UniProt Q16595); experiment: Simoa sandwich 2-step (120 min-5 min); capture Ab-1; frataxin 667 pg/mL
[15] = molecular target: Recombinant, his tagged full length human frataxin protein (Abcam ab95502) (human) (UniProt Q16595); experiment: Simoa sandwich 2-step (120 min-5 min); capture Ab-1; Diluent 1 + 5% NCS; frataxin 333 pg/mL
[16] = molecular target: Recombinant, his tagged full length human frataxin protein (Abcam ab95502) (human) (UniProt Q16595); experiment: Simoa sandwich 2-step (120 min-5 min); capture Ab-1; Diluent 1 + 5% NCS
[17] = molecular target: Recombinant, his tagged full length human frataxin protein (Abcam ab95502) (human) (UniProt Q16595); experiment: Simoa sandwich 2-step; capture Ab-4
[18] = molecular target: Recombinant, his tagged full length human frataxin protein (Abcam ab95502) (human) (UniProt Q16595); experiment: Simoa sandwich; capture Ab-1; no helper beads; frataxin 500 pg/mL
[19] = molecular target: Recombinant, his tagged full length human frataxin protein (Abcam ab95502) (human) (UniProt Q16595); experiment: Simoa sandwich 2-step; capture Ab-2; frataxin 167 pg/mL
[20] = molecular target: Recombinant, his tagged full length human frataxin protein (Abcam ab95502) (human) (UniProt Q16595); experiment: Simoa sandwich 2-step (120 min-5 min); capture Ab-1; Diluent 1 + 10% NCS; frataxin 0.823 pg/mL
[21] = molecular target: Recombinant, his tagged full length human frataxin protein (Abcam ab95502) (human) (UniProt Q16595); experiment: Simoa sandwich 2-step (120 min-5 min); capture Ab-1; frataxin 74.1 pg/mL
[22] = molecular target: Recombinant, his tagged full length human frataxin protein (Abcam ab95502) (human) (UniProt Q16595); experiment: Simoa sandwich 3-step; capture Ab-5; frataxin 100 pg/mL
[23] = molecular target: Recombinant, his tagged full length human frataxin protein (Abcam ab95502) (human) (UniProt Q16595); experiment: Simoa sandwich 2-step (120 min-5 min); capture Ab-1; Diluent 1 + 5% NCS; frataxin 7.41 pg/mL
[24] = molecular target: Recombinant, his tagged full length human frataxin protein (Abcam ab95502) (human) (UniProt Q16595); experiment: Simoa sandwich 2-step (120 min-5 min); capture Ab-1; Diluent 1 + 5% NCS; frataxin 12.3 pg/mL
[25] = molecular target: Recombinant, his tagged full length human frataxin protein (Abcam ab95502) (human) (UniProt Q16595); experiment: Simoa sandwich; capture Ab-1; no helper beads
[26] = molecular target: Recombinant, his tagged full length human frataxin protein (Abcam ab95502) (human) (UniProt Q16595); experiment: Simoa sandwich 2-step; capture Ab-1; frataxin 2.06 pg/mL

Sequence of UniProt Q16595 (Q16595 42-210): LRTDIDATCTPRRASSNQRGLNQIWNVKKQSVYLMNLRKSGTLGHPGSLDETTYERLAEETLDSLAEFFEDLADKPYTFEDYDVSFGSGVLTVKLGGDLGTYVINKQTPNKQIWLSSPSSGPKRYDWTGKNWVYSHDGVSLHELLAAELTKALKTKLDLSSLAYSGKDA

## Ab-3, mouse monoclonal [18A5DB1] to Frataxin (Abcam ab110328) (antibody)
[1]
  Ave AEB: 37.3 AEB
  S/B: 462
[2]
  Ave AEB: 1.98 AEB
  S/B: 19.1
[3]
  LOD: 11.9 pg/mL
[4]
  Ave AEB: 2.44 AEB
  S/B: 38.9
[5]
  Ave AEB: 0.521 AEB
  S/B: 11.6
[6]
  Ave AEB: 2.79 AEB
  S/B: 23.8
[7]
  Ave AEB: 17.2 AEB
  S/B: 388
[8]
  Ave AEB: 30.7 AEB
  S/B: 384
[9]
  Ave AEB: 0.174 AEB
  S/B: 16.2
[10]
  Ave AEB: 0.341 AEB
  S/B: 31.1
[11]
  Ave AEB: 2.03 AEB
  S/B: 112
[12]
  Ave AEB: 0.737 AEB
  S/B: 7.72
[13]
  Ave AEB: 32.2 AEB
  S/B: 725
[14]
  AEB rep1: 3.57 AEB
  AEB rep2: 3.99 AEB
  AEB rep3: 3.61 AEB
  Ave AEB: 3.73 AEB
  S/B: 451
[15]
  Ave AEB: 3.06 AEB
  S/B: 279
[16]
  LOD: 0.268 pg/mL
[17]
  LOD: 0.34 pg/mL
[18]
  AEB Rep1: 7.94 AEB
  AEB Rep2: 5.08 AEB
  Ave AEB: 6.51 AEB
  S/B: 288
[19]
  Ave AEB: 14.1 AEB
  S/B: 148
[20]
  Ave AEB: 0.0296 AEB
  S/B: 1.63
[21]
  AEB rep1: 0.357 AEB
  AEB rep2: 0.356 AEB
  AEB rep3: 0.336 AEB
  Ave AEB: 0.35 AEB
  S/B: 42.4
[22]
  Ave AEB: 2.9 AEB
  S/B: 15.2
[23]
  Ave AEB: 0.156 AEB
  S/B: 8.62
[24]
  Ave AEB: 0.123 AEB
  S/B: 11.2
[25]
  Estimated LLOQ: 1.16 pg/mL
  LOD: 0.551 pg/mL
[26]
  Ave AEB: 0.318 AEB
  S/B: 3.06
